Patent US5037646A, “Processes for the treatment of vascular disease” (Genentech, Inc., priority 1990, dated 1991)
Several values for one entry are separate records, joined by “and”; a condition that tells them apart may be missing. Equal values may be shown once. Read-outs that look alike come from different tables or passages of the source.

Key:
[1] = rabbits; cited from earlier work
plasminogen = assay: In vitro plasminogen activation, two-stage assay with plasmin specific substrate S-2251; format: biochemical
Method: The ability of t-PA to activate plasminogen can be measured in an in vitro assay by preincubating t-PA and plasminogen and then adding the plasmin specific substrate H-D-valyl-H-leucyl-H-lysine-p-nitronilide (S-2251). The maximum rate of this reaction is observed in the presence of fibrin(ogen) or fragments of fibrin(ogen) which act as stimulators of the reaction.
The plasmin specific substrate S-2251 was used in a two-stage assay to measure the ability of the sample to activate plasminogen. Fibrin clots were made by incubating the sample with 0.02 ml of a 20 mg/ml fibrinogen solution with 1U of thrombin in a total volume of 0.12 ml of 0.05M Tris-HCl, 0.12M NaCl, 0.01% Tween 80, pH 7.4 for 30 min. at 37' C. Alternatively, the thrombin could be omitted and fibrinogen used as the stimulator. Glu-plasminogen solution, 0.03 ml of a 2.1 mg/ml solution, was then added. After 10 min at 37' C., 0.35 ml of 2.86 mM S-2251 in 0.037M Tris, 0.86 NaCl, 0.007% Tween 80, pH 7.4) were added. This mixture was incubated for five minutes then the reaction was stopped by the addition of 0.1 ml of 50% glacial acetic acid. Absorbance at 405 nm was measured. The activity was expressed as the change in absorbance per nanogram per minute in the presence of substrate.
The stimulation is the ratio of the specific activity of the sample containing fibrin and the specific activity of the sample not containing fibrin.

fibrin clot = assay: In vitro fibrin clot lysis assay with saturating plasminogen; format: biochemical; details: t-PA = 1.0
Source text: In order to further compare the ability of des 1-44 t-PA to activate plasminogen in the presence of fibrin(ogen), it was compared to t-PA in an assay which measures the ability of t-PA and saturating plasminogen to lyse a fibrin clot.

[2] = monkeys; cited from earlier work
[3] = Pharmacokinetics of I-125 labeled t-PA, i.v. bolus in rabbits; format: in vivo, rabbit; set-up: B0 / t1/2b / A0 / AUMC × 10^- 6: unit not given here; details: carrier 1 mg/kg cold rt-PA; for CL (clearance rate): natural t-PA
Method: Comparative pharmacokinetic studies were performed in rabbits. I-125 labeled test t-PA, either wild type or N44 variant, 5 uCi/kg with a specific activity of 5 to 10 uCi/ug, and carrier wild type t-PA, 1.0 mg/kg, were coinjected, serial blood samples were collected, plasma prepared and the TCA (trichloroacetic acid) precipitable counts were determined at each time point. TCA precipitation was used in order to remove any small metabolites which appear at later times due to degradation of t-PA by the liver. The plasma concentration time curve for rt-PA was fit to a biexponential equation C-Aexp(-alphaXt)+Bexp(-betaXt). The curve for the des (1-44) rt-PA was fit to a monoexponential equation C-Aexp(-alphaXt). The clearance (Cl) was calculated by the formula Cl-DOSE/AUC, where AUC is the area under the plasma concentration time curve. […]

[4] = cited from earlier work
[5] = In vitro protease amidolytic assay with S-2288 substrate; format: biochemical; details: S-2288, 23 nM protein, pH 7.4
Method: The activity of des (1-44) t-PA in a protease amidolytic assay was compared to that of natural t-PA using the S-2288 paranitroanilide chromogenic substrate (Helena Labs). The S-2288 paranitroanilide substrate provides a direct measurement of protease amidolytic activity. The kinetic constants for t-PA and des 1-44 t-PA were determined with the S-2288 substrate using an H-P diode array spectrophotometer (HP8451-A). Hydrolysis of the substrate was measured continuously at two substrate concentrations (1.0 mM and 0.1 mM) while the protein concentrations were held constant at 23 nM in a buffer composed of 0.05M Tris-HCl, 0.12M NaCl, 0.01% Tween 80, pH 7.4. Using the differential form of the Michaelis-Menten equation and a non-linear regression the Km and Vmax were calculated from the curves of the progress of the reaction.

[6] = individual rabbits #A, #C, #E, #G

Q: Which nominal half-life [1] does the source give for “natural t-PA: human tissue plasminogen activator, amino acids 1-527, whether obtained from natural or recombinant sources” here?
A: about 2 minutes

Q: What about the “Stim (stimulation: specific activity with / without)” value (plasminogen; With Fibrin Clots) of the same substance?
A: 100

Q: What about the “rel (relative activity)” value (plasminogen; With Fibrin Clots, relative to t-PA) of the same substance?
A: 100%

Q: What about the “Stim (stimulation: specific activity with / without)” value (plasminogen; With Fibrinogen) of the same substance?
A: 100

Q: What about the “+Fgn rel (relative activity)” value (plasminogen; With Fibrinogen, relative to t-PA) of the same substance?
A: 100%

Q: And the “increase of activity in the presence of fibrin” value (plasminogen; in the presence of fibrin)?
A: about 50 fold

Q: What about the “Clot lysis (relative units)” value (fibrin clot) of the same substance?
A: 1.0 relative units

Q: And the nominal half-life [2]?
A: ~3.5 min

Q: And the “AUMC × 10^- 6” value ([3]; MEAN)?
A: 601.493

Q: What about the VDSS ([3]; MEAN) of the same substance?
A: 0.213336 L/kg

Q: And the t1/2b ([3]; MEAN)?
A: 28.868

Q: And the A0 ([3]; MEAN, biexponential fit)?
A: 275201

Q: And the B0 ([3]; MEAN, biexponential fit)?
A: 30352.649

Q: And the t1/2a ([3]; MEAN, unit from b248, listed as rT-PA)?
A: 3.067 min

Q: And the t1/2a ([3]; MEAN, unit from b248, listed as rt-PA)?
A: about 3.1 minutes

Q: What about the “CL (clearance rate)” value ([3]; MEAN, listed as rT-PA) of the same substance?
A: 8.357 mL/min/kg

Q: What about the “CL (clearance rate)” value ([3]; MEAN, listed as rt-PA) of the same substance?
A: about 8.4 ml/min/kg

Q: What about the A0 [3, 6] of the same substance?
A: 247990 and 306059 and 255904 and 290852

Q: What about the “AUMC × 10^- 6” value [3, 6] of the same substance?
A: 789.510 and 452.925 and 637.710 and 525.828

Q: What about the B0 [3, 6] of the same substance?
A: 30144.320 and 32920.033 and 27005.306 and 31340.936

Q: What about the CL [3, 6] of the same substance?
A: 7.063 mL/min/kg and 9.222 mL/min/kg and 8.567 mL/min/kg and 8.577 mL/min/kg

Q: What about the VDSS [3, 6] of the same substance?
A: 0.209553 L/kg and 0.197899 L/kg and 0.232427 L/kg and 0.213466 L/kg

Q: And the t1/2a [3, 6]?
A: 3.716 min and 2.645 min and 3.334 min and 2.575 min

Q: And the t1/2b [3, 6]?
A: 33.236 and 23.987 and 31.782 and 26.467

Q: What about the t1/2b ([4]; beta phase) of the same substance?
A: about 30 minutes

Q: And the t1/2a ([4]; dominant alpha phase)?
A: about 2.2 minutes

Q: What about the t1/2a component ([4]; where Co=100) of the same substance?
A: about 95%

Q: What about the t1/2b component ([4]; where Co=100) of the same substance?
A: about 5%

Q: What about the kcat [5] of the same substance?
A: 17.9 s⁻¹
